Test results from US10648979B2, “Molecular probes for detecting gram-negative bacteria in vitro and in vivo” (priority 2014, dated 2020).
Bridge positions count the residues as written; N and C are the ends. Square brackets hold non-standard residues; d marks the D form. Peptide text beside a SMILES is read from it. * marks the point of attachment. ξ: configuration not given here. NBD = O=[N+]([O-])c1ccc(*)c2nonc12; dDab = NCC[C@@H](N)C(=O)O; Dab = NCC[C@H](N)C(=O)O; AEEA = NCCOCCOCC(=O)O; ξDab = NCCC(N)C(=O)O

Experiments:
[1] = Rodent single dose intratracheal toxicity assessment; format: in vivo, Mice; parameters: Creatinine / Bilirubin / Albumin: unit not given here
[2] = Stability in saline or BALF from patients with Acute Lung Injury (MALDI-TOF / FTMS); details: incubated for 30 minutes
Protocol: FIG. 16: NBD-UBIdend is stable in ALI BALF. […] NBD-PMX is stable in ALI BALF.
Secondly we assessed stability of the probes in broncholalveolar lavage fluid (BALF) from patients with Acute Lung Injury (ALI) by Fourier Transform Mass Spectrometry (FTMS) and Matrix-Assisted Laser Desorption/Ionization Time-of-Flight Mass Spectrometry (MALDI-TOF MS) analysis. NBD-UBINle, NBD-UBIdend and NBD-PMX were incubated for 30 minutes with BALF (FIG. 16).
In vitro labelling was assessed on benchtop confocal in the presence of compound with bacteria and labelling was compared to NBD-UBINle which served as a reference control for bacterial labelling. […] For the ex vivo and in vivo ovine lung experiments each compound was assessed in a control lung segment (instilled with 2 ml PBS) or a bacterial segment (instilled with 2 ml of 2 optical density of bacteria). Following bacterial instillation, the compound was administered to the segment of interest and this was imaged by probe based confocal laser endomicroscopy (FCFM).
Probe was added to saline or pooled BALF from patients with ALI incubated for 30 minutes. A ZipTip (C-18, 0.2 μL) with 5 μL MeCN (with 0.1% TFA as an additive) followed by 20 μL of H2O was washed. The ZipTip was loaded with the sample, washed and eluted into 5 μL of 80% aq. MeCN (with 0.1% TFA as an additive). The sample was analysed by MALDI-TOF (PerSeptive Biosystems Voyager DETMSTR MALDI-TOF mass spectrometer (Applied Biosystems, Foster City, Calif.)).

PA3284 = assay: Bacterial labelling in the presence or absence of ovine lavage (confocal); format: cell-based, Pseudomonas aeruginosa; details: 1 μM
[3] = Emission spectra of probes in PBS or DMSO (hydrophobic environment); format: physicochemical; details: excited at 488 nm; NBD-UBIdend 5 μM, NBD-UBINle 15 μM, NBD-PMX 10 μM
Protocol: A) Emission spectra shown for NBD-UBIdend (5 μM) and NBD-UBINle (15 μM) in the presence of PBS or DMSO (hydrophobic environment) when excited at 488 nm wavelength. B) Emission spectra shown for NBD-PMX (10 μM) in the presence of PBS or DMSO (hydrophobic environment) when excited at 488 nm wavelength. The fluorescence of both probes greatly increases under hydrophobic conditions as would be present upon binding to the bacterial membrane target.
To confirm the fluorescent reporter NBD retains its characteristics when coupled with our peptide moieties we measured the fluorescence of the compounds in conditions to mimic a hydrophobic environment (DMSO).

[4] = system: bacteria over lung surfactant constituents; assay: Bacterial labelling in the presence of lung surfactant constituents (confocal); format: cell-based
Protocol: Ratio of bacterial fluorescence intensity:surfactant fluorescent intensity quantified from confocal microscopy images.
In vitro experiments were conducted using lung surfactant constituents to investigate the ability of probes to preferentially detect bacteria in the presence of large amounts of surfactant. […] A suspension of surfactant constituents in buffered saline was prepared (20 mg/ml, 65% dipalmitoylphosphatidylcholine, 30% phosphatidylglycerol, 5% palmitic acid with 1 mg/ml tyloxapol as a spreading agent) and incubated with and without A549 epithelial cell monolayer.
Surfactant 5 μg 1,2-Dipalmitoyl-sn-glycero-3-phosphocholine (DPPC) and 2.5 μg L-α-Phosphatidyl-DL-glycerol sodium salt (from egg yolk lecithin; PG) were dissolved in 500 μl chloroform and evaporated under nitrogen to a thin lipid film in a round bottom flask. The lipid film was rehydrated with PBS at 48° C. for 1 hour with agitation (750 rpm) to generate multilammelar vesicles (MLV). These were diluted 1:4 for use in confocal experiments.

bacteria in ovine lung = assay: Automated image processing of entire FCFM videos from ovine lung; details: 80 spots per frame threshold
Source text: FIG. 19: Image Processing Algorithms delineate ‘positive’ and ‘negative’ frames from FCFM data A) raw data for a frame that is deemed positive or negative. B) Without pre-processing, spot-detection is ineffective. Following estimation of background noise C), high-pass filtering D) and appropriate thresholding E), the current algorithm detect minimal punctate signal in negative frames F).
Analysis of NBD-UBIdend videos with thresholding at 80 spots per frame and an arbitrary cut-off of 10% enables objective detection of bacteria using a combination of Laplacian of Gaussian (LoG) and Difference of Gaussians (DoG) positive frames. […]
We have begun to develop bespoke image analysis/processing strategies to perform rapid real-time objective analysis of the large datasets generated by the probe/FCFM platform. […] These signal and image processing algorithms will be rapidly iterated in readiness for clinical application, and we expect significant components of machine-learning to be incorporated into further optimisation of NBD-UBIdend and NBD-PMX datasets.
Spots are enhanced in an image by convolving with a LoG or DoG filter. […] Finally, spots are detected with LoG or DoG. […]

[5] = system: bacteria on human lung tissue; assay: Detection of bacteria in the presence of human lung tissue autofluorescence (FCFM, confocal, FLIM); details: FCFM and benchtop confocal
Source text: FIG. 21: Bacteria detected in the presence of human lung tissue autofluorescence. […] B) Live confocal microscopy images (merge) showing merge images of nucleic acid counterstain (red) with no NBD-PMX labelling. Bacteria in right panel can be clearly seen, labelled with NBD-PMX and above the background fluorescence.
FIG. 24: Fluorescence Life Time Imaging easily distinguishes lung tissue from bacteria. […] Imaging performed using NBD-UBIdend and S. aureus on human lung tissue.

For `CC(C)C[C@@H]1NC(=O)[C@@H](Cc2ccccc2)NC(=O)[C@@H](CCN)NC(=O)C(NC(=O)[C@H](CCN)NC(=O)[C@@H](NC(=O)COCCOCCNc2ccc([N+](=O)[O-])c3nonc23)[C@@H](C)O)CCNC(=O)[C@@H]([C@H](C)O)NC(=O)[C@H](CCN)NC(=O)[C@H](CCN)NC1=O` (stereo partly drawn) [NBD-PMX] ({NBD-AEEA}-T[Dab][ξDab][dDab][dF]L[Dab][Dab][dT]; lactam 3-C), the ALP ([1]; 48 hours) was 107.7 ± 17.3 u/l, the ALT ([1]; 48 hours) was 36.0 ± 9.0 u/l and the Albumin ([1]; 48 hours) was 23.7 ± 0.3. It also gave a BALF ([1]; 48 hours) of 509.0 ± 270.2 Cells/ul, a Bilirubin ([1]; 48 hours) of 1.2 ± 0.4 and a Creatinine ([1]; 48 hours) of 16.3 ± 8.8. For the same molecule, the “Cytospin (% of Neutrophils)” value ([1]; 48 hours) was 0%, the “Cytospin (% of Red Blood Cells)” value ([1]; 48 hours) was 3.9% and the PenH value ([1]; 48 hours) was 0.5 ± 0.05. For the same molecule, the “Cytospin (% of Mononuclear cells)” value ([1]; 48 hours, single intratracheal 100 μg/25 g mouse) was 96.1%, the ALP ([1]; 14 days) was 126.3 ± 8.5 u/l and the ALT ([1]; 14 days) was 40.3 ± 4.8 u/l. It also gave an Albumin ([1]; 14 days) of 25.3 ± 0.7, a BALF ([1]; 14 days) of 542.0 ± 84.7 Cells/ul and a Bilirubin ([1]; 14 days) of 1.2 ± 0.4. For the same molecule, the Creatinine ([1]; 14 days) was 9.7 ± 0.3, the “Cytospin (% of Neutrophils)” value ([1]; 14 days) was 0% and the “Cytospin (% of Red Blood Cells)” value ([1]; 14 days) was 2.3%. For the same molecule, the PenH value ([1]; 14 days) was 0.5 ± 0.07, the “Cytospin (% of Mononuclear cells)” value ([1]; 14 days, single intratracheal 100 μg/25 g mouse) was 93.0% and the “organ toxicity (histology)” value ([1]; single instillation, 48 hours and 14 days, compared to PBS control) was “no organ toxicity”. For the same molecule, the toxicity ([1]; single intratracheal 100 μg/25 g mouse, 48 hours and 14 days) was “no toxicity”, the “stability in ALI BALF” value [2] was “demonstrate stability” and the stability in saline [2] was “readily identified in both saline and BALF incubated samples”. The “fluorescence in ovine lavage versus absence of lavage” value (PA3284) was “no significant reduction of fluorescence intensity”, the “fluorescence in DMSO compared to PBS” value [3] was “significant increase in fluorescence” and the “selectivity for bacterial labelling over lung surfactant constituents” value [4] was “possess selectivity for bacterial labelling over lung surfactant constituents”. For the same molecule, the “bacterial:surfactant fluorescence intensity compared with linear NBD-UBINle” value ([4]; equimolar NBD concentrations) was “significantly higher bacterial: surfactant intensity than NBD-UBInle”, the “detection by automated image processing (percentage positive frames, YES/NO)” value (bacteria in ovine lung) was “unequivocal detection of bacteria and Gram status” and the “detection of bacteria above human lung autofluorescence” value [5] was “demonstrating bacterial signal”.
